Test results reported in US20220348651A1 (Novartis, published 2022).
Where a chain is given by its changes, count along the chain named. Blank lines part the entries; values can stand above or below the binder they belong to.

Key:
[1] = target: T1, mouse ENTPD2 expressed on cells (mouse, UniProt O55026 1-495); test: flow cytometry (FACS)
T1 construct: also called NIH3T3-mouse ENTPD2 engineered cell line; mouse ENTPD2-engineered 4T1 clone 45
T1 sequence: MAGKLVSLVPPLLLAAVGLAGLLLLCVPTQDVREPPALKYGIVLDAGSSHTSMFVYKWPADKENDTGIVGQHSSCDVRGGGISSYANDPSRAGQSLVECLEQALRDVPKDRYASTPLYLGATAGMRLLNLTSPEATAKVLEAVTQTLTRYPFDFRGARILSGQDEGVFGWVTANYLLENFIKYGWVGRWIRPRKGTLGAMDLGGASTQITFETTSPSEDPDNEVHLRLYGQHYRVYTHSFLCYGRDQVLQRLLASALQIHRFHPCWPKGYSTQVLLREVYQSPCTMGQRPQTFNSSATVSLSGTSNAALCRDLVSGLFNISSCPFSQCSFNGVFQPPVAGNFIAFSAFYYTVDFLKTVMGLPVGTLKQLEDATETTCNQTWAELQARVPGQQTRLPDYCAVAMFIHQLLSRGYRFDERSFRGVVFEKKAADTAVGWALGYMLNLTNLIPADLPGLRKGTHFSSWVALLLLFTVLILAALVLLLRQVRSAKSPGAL

[2] = target: T1, mouse ENTPD2 expressed on cells; test: cell-based or functional assay
[3] = target: recombinant human ENTPD2 extracellular domain (residues 29-462) with C-terminal Avi-His6 tag (human, UniProt Q9Y5L3 29-462, biotinylated on the AviTag in the epitope binning assay); test: cell-based or functional assay
[4] = target: T2, human ENTPD2 expressed on cells (human, UniProt Q9Y5L3 1-495); test: cell-based or functional assay
T2 sequence: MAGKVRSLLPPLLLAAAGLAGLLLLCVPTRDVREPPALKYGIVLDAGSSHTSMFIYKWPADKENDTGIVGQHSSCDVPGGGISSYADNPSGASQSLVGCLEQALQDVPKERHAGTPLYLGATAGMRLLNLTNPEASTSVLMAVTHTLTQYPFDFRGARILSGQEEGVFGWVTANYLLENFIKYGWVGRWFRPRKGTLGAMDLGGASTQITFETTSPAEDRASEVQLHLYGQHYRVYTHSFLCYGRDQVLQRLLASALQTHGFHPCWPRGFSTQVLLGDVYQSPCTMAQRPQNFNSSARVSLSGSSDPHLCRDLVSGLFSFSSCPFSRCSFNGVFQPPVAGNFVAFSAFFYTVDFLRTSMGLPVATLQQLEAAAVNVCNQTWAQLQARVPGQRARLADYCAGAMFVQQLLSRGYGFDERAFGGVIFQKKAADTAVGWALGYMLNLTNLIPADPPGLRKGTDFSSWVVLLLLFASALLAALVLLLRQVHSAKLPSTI

[5] = target: T3, cyno ENTPD2 expressed on NIH/3T3 cells (cynomolgus macaque, UniProt Q9Y5L3 1-495 (human entry)); test: cell-based or functional assay
T3 chain: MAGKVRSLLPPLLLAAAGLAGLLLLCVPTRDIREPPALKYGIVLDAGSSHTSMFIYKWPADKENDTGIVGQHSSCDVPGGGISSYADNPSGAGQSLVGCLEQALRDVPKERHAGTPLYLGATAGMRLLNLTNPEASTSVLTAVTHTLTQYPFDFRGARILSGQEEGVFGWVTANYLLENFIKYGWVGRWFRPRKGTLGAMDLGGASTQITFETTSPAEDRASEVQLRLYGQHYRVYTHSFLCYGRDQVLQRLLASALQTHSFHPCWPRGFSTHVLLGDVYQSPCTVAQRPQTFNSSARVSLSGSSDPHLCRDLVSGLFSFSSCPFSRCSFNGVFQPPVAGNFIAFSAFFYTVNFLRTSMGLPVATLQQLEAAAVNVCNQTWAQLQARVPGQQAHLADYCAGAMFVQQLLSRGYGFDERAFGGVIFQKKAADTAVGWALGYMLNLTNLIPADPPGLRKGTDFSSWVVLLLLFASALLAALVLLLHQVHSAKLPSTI

[6] = target: T4, recombinant human ENTPD2 (residues 29-462, Y350A mutant) used in crystallographic studies (human, UniProt Q9Y5L3 29-462, N-linked glycosylation observed at Asn129, Asn294, Asn378 and Asn443); test: X-ray crystal structure of the complex
T4 construct: also called hENTPD2 Y350A; human ENTPD2 (Y350A mutant) ectodomain
T4 sequence: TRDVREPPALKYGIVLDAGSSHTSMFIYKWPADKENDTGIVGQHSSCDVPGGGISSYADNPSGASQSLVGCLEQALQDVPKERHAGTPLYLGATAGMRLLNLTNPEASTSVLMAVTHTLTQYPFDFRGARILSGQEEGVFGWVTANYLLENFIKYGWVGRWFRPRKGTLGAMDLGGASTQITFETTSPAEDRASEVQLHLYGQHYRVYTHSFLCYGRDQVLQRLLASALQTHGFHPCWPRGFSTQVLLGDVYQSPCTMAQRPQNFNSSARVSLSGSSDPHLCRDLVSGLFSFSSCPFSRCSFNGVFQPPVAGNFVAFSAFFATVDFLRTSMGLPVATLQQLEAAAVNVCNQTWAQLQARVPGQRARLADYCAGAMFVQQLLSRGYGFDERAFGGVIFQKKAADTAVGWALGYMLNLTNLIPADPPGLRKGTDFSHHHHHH
Description: Structure determination by molecular replacement was performed using the previously determined human ENTPD2 coordinates and Fab coordinates from PDB code 3QRG.

EC50 [1]: 3 to 4 nM | ENTPD2 Functional Assay IC50 (mouse ENTPD2 NIH/3T3 cells) [2]: 2.8 nM
B1: ANTI-mouse ENTPD2 MAB13 (antibody, mouse IgG2a, kappa, V domains shown)
VH: QVQLVQSGAELKQPGQSVKISCKASGYTFTHYGMNWVKQAPGQGLKWMGWINTDTGNPTYADDFKGRFVFSLDTSVSTAYLQISNLKNEDTATYYCVRYGTLYSGYGFFFDSWGQGTLVTVSS
VL: DIMMTQSPSSLSVSAGEKATITCKSSQSLFNSNTNKNYLNWYLQKPGQSPKLLFYYASTRHTGVPDRFIGSGSGTDFTLTITSVQDEDLADYYCQQWYSYPWTFGPGTKLEIKR
notes: mouse ENTPD2 selective antibody; also called Anti-ENTPD2 mAb13

ENTPD2 Functional Assay IC50 (mouse ENTPD2 NIH/3T3 cells) [2]: 4.6 nM
B2: ANTI-mouse ENTPD2 MAB14 (antibody, mouse IgG2a, kappa, V domains shown)
VH: B1 VH with T30W
VL: B1 VL

ENTPD2 Functional Assay IC50 (mouse ENTPD2 NIH/3T3 cells) [2]: 5.9 nM
B3: ANTI-mouse ENTPD2 MAB15 (antibody, mouse IgG2a, kappa, V domains shown)
VH: B1 VH with T30H
VL: B1 VL

IC50, ENTPD2 Biochemical Assay at 1 uM ATP [3]: 0.27 nM | % inhibition, Human ENTPD2 NIH/3T3 Assay [4]: 98% | % inhibition, RKO Assay [4]: 96% | IC50, Human ENTPD2 NIH/3T3 Assay [4]: 0.6 nM | IC50, RKO Assay [4]: 0.5 nM | % inhibition, Cyno ENTPD2 NIH/3T3 Assay [5]: 91% | IC50, Cyno ENTPD2 NIH/3T3 Assay [5]: 1 nM
B4: ANTI-HUMAN ENTPD2 MAB17 (antibody, human IgG1, kappa, V domains shown)
VH: EVQLQQFGAELVKPGASVKISCKASGYTFTDYNMDWVKQSHGKSLEWIGDINPKYDISTYNQQFKGKATLTVDKSSSTAYMELRSLTSEDTAVYYCARRGFFLYYGINYYYFDVWGAGTTVTVSS
VL: QIVLTQSPAIMSASLGEEITLTCSASSSVSYIHWYQQKSGTSPTLLIYSTSNLASGVPSRFSGSGSGTFYSLTISSVEAEDAADYYCHQWSSYPWTFGGGTKLEIKR

IC50, ENTPD2 Biochemical Assay at 1 uM ATP [3]: 0.87 nM
B5: ANTI-HUMAN ENTPD2 MAB21 (antibody, human IgG1, kappa, V domains shown)
VH: EVQLQQSGPELVKPGASVKISCKTSGYTFTEYTMHWVKQSHGKSLEWIGGINPNNGITTYNQKFKGKATLTVDKSSSTAYMDLRSLTSEGSAVYYCARRGFPIYYYGTSLYYFDYWGQGTTLTVSS
VL: B4 VL with I32M, K38R, T44K, S49T

buried solvent-accessible surface [6]: ~17500 Å2
B6: ANTI-HUMAN ENTPD2 FAB23 (Fab, V domains shown)
VH: B4 VH
VL: B4 VL
modifications: N-terminal residue observed and modeled as pyroglutamate in the crystal structure
notes: Fab with the variable regions of mAb17; also called anti-hENTPD2 FAb23; anti-human ENTPD2 MAB17 Fab

IC50, ENTPD2 Biochemical Assay at 1 uM ATP [3]: 17.5 nM
B7: ANTI-HUMAN ENTPD2 MAB20 (antibody, human IgG1, kappa, V domains shown)
VH: B4 VH with K54N, S58T, T59S, Q63K, I107S, N108S
VL: B4 VL with I32M, T44K

IC50, ENTPD2 Biochemical Assay at 1 uM ATP [3]: 4.09 nM
B8: ANTI-HUMAN ENTPD2 MAB19 (antibody, human IgG1, kappa, V domains shown)
VH: B4 VH with A16T, K54N, S58T, Q63R, L103P, I107N, N108S
VL: B4 VL with A9T, I32M, T44K, S92N

% inhibition, Human ENTPD2 NIH/3T3 Assay [4]: 68% | IC50, Human ENTPD2 NIH/3T3 Assay [4]: 26.6 nM
B9: ANTI-HUMAN ENTPD2 MAB12 (antibody, human IgG1, kappa, V domains shown)
VH: EVLLVESGGGLVQPGGSLRLSCAASGFTFNSCSMNWVRQAPGKGLEWVSYISSSSSTIYYADSVKGRFTISRDNAKNSLYLQMNSLKDEDTAVYYCARDQGNWNYDDYYNGLDVWGQGTTVTVSS
VL: not shown

% inhibition, Human ENTPD2 NIH/3T3 Assay [4]: 55% | IC50, Human ENTPD2 NIH/3T3 Assay [4]: 1.5 nM
B10: ANTI-HUMAN ENTPD2 MAB11 (antibody, human IgG1, kappa, V domains shown)
VH: EVQLLESGGGLVQSGGSLRLSCAASGFTFSSYAMSWVRQAPGKGLEWVSVISGSGGSTYYADSVKGRFTISRDNSKNTLYLQMNSLRAEDTAVYYCARGDDYGDDYYYYGMDVWGQGTTVTVSS
VL: not shown

IC50, ENTPD2 Biochemical Assay at 1 uM ATP [3]: 77.3 nM | % inhibition, Human ENTPD2 NIH/3T3 Assay [4]: 30% | IC50, Human ENTPD2 NIH/3T3 Assay [4]: > 133 nM | % inhibition, Cyno ENTPD2 NIH/3T3 Assay [5]: 5% | IC50, Cyno ENTPD2 NIH/3T3 Assay [5]: > 133 nM
B11: ANTI-HUMAN ENTPD2 MAB16 (antibody, human IgG1, kappa, V domains shown)
VH: DIQLQESGPGLVKPSQSLSLTCSVTGYSITSGYYWNWIRQFPGNKLEWMGYISYDGDNNYNPSLKNRISITRDTSKNQFFLKLSSVTTEDTATYYCAGGYYRYGLSYYYVMDYWGQGTSVTVSS
VL: DTVLTQSPASLAVSLGQRATISCKASQSVDYDGNSYMNWYQQKPGQPPKLLIYAASNLESGIPARFSGSGSGTDFTLNIHPVEEEDAATYYCQQSNEDPPTFGGGTKLEIKR

buried solvent-accessible surface [6]: ~16700 Å2
B12: ANTI-HUMAN ENTPD2 FAB22 (Fab, V domains shown)
VH: B11 VH with D1E, I2V, Q3K, Q5E, E6Q, G50S, S124A
VL: B11 VL with T2I, V3K, L4M, I110L
notes: Fab with the CDRs of mAb16; human CH1 and kappa constant regions; also called anti-hENTPD2 FAb22

% inhibition, Human ENTPD2 NIH/3T3 Assay [4]: 88% | IC50, Human ENTPD2 NIH/3T3 Assay [4]: 0.4 nM | % inhibition, Cyno ENTPD2 NIH/3T3 Assay [5]: 68% | IC50, Cyno ENTPD2 NIH/3T3 Assay [5]: 20 nM
B13: ANTI-HUMAN ENTPD2 MAB18 (antibody, human IgG1, kappa, V domains shown)
VH: DIQLQESGPGLVKPSQSLSLTCSVTGYSITSGYYWNWIRQFPGNKLEWMGYISYDGDNNYNPSLKNRISITRDTSKNQFFLKLSSVTTEDTATYYCAGGYYRYGLGSYSGSYYYVMDYWGQGTSVTVSS
VL: B11 VL
